Data: article PMC6411837

Legend:
[1] = test system: eIF2 with eIF2beta-E189R;eIF1 (WT);eIF1A (WT);40S ribosomal subunit (Saccharomyces cerevisiae (yeast);Saccharomyces cerevisiae (yeast);Saccharomyces cerevisiae? (yeast);Saccharomyces cerevisiae (strain YAS2488)); test: EMSA kinetics; settings: aminoacylated with Met; 30 mM HEPES-KOH pH 7.4, 100 mM potassium acetate, 3 mM magnesium acetate, 2 mM DTT, 26 C; GDPNP; native gel shift
[2] = test system: eIF2 with eIF2beta-F217A/Q221A;eIF1 (WT);eIF1A (WT);40S ribosomal subunit (Saccharomyces cerevisiae (yeast);Saccharomyces cerevisiae (yeast);Saccharomyces cerevisiae? (yeast);Saccharomyces cerevisiae (strain YAS2488)); test: EMSA kinetics; settings: aminoacylated with Met; 30 mM HEPES-KOH pH 7.4, 100 mM potassium acetate, 3 mM magnesium acetate, 2 mM DTT, 26 C; GDPNP; native gel shift
[3] = test system: eIF2 (WT), GDPNP-bound;eIF1-Q31A/F108A;eIF1A (WT);40S ribosomal subunit (Saccharomyces cerevisiae (yeast);Saccharomyces cerevisiae (yeast);Saccharomyces cerevisiae? (yeast);Saccharomyces cerevisiae (strain YAS2488)); test: EMSA kinetics; settings: aminoacylated with Met, 30 mM HEPES-KOH pH 7.4, 100 mM potassium acetate, 3 mM magnesium acetate, 2 mM DTT, 26 C, native gel shift
[4] = target: ternary complex (TC) of WT eIF2, GDPNP and Met-tRNAi, P20459;P09064;P32481; test: TC dissociation kinetics, EMSA
[5] = target: 40S·eIF1·eIF1A·mRNA complex with WT eIF1, P32911;P38912; test: TC binding kinetics (kobs versus [40S], as in Figure 6A–C); settings: three independent experiments

Met-tRNAi on 40S with mRNA(UUG) gave a binding signal (fold decrease in koff vs WT eIF2) [1] of 2 and a binding signal (fold decrease in kon vs WT eIF2) [2] of 1.5.

Met-tRNAi on 40S with mRNA(AUG) gave a binding signal (fold decrease in kon vs WT eIF1) [3] of 2 and a binding signal (fold decrease in kon vs WT eIF2) [2] of 1.5.

“40S·eIF1·eIF1A·mRNA complex with WT eIF1 (from UniProt P32911;P38912) eIF1:F108D” was tested, and the koff ([4]; mRNA(AUG), n = 3 (WT n = 5)) was 5e-05 s⁻¹ and the koff ([4]; mRNA(UUG), n = 3 (WT n = 5)) was 7.5e-05 s⁻¹.

Work on “ternary complex (TC) of WT eIF2, GDPNP and Met-tRNAi (from UniProt P20459;P09064;P32481) eIF2β:S202A; eIF2β:K214A” yielded a kon ([5]; mRNA(AUG)) of 4.11 s⁻¹ and a kon ([5]; mRNA(UUG)) of 2.76 s⁻¹.

“40S·eIF1·eIF1A·mRNA complex with WT eIF1 (from UniProt P32911;P38912) eIF1:Q31E” was tested, and the koff ([4]; mRNA(UUG), n = 4 (WT n = 5)) was 3.33e-05 s⁻¹.
